Source: US20240100176A1 (Eli Lilly, published 2024)

T1: human FcγRIIA_131R (CD32a) extracellular domain (human, UniProt P12318 34-217)
T1 construct: extracellular domain
T1 sequence (looked up): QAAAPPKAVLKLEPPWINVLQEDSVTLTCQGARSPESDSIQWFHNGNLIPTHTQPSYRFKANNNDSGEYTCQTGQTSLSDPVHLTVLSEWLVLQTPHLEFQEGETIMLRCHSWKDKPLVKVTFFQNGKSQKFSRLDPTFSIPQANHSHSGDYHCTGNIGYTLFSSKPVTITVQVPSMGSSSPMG

T2: human FcγRIIA_131H (CD32a) extracellular domain (human, UniProt P12318 34-217)
T2 construct: extracellular domain
T2 sequence (looked up): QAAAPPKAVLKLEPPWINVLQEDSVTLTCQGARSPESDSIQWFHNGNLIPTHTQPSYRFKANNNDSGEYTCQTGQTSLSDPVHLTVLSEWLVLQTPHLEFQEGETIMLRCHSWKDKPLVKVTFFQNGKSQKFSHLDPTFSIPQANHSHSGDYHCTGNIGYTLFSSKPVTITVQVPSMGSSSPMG


Legend:
[1] = biological target: T3, hexahistidine tagged human IL-4Rα ECD P124R (human, UniProt P24394 26-232); assay: capture ELISA: Ab1 on anti-human IgG Fc, His-tagged receptor at 0.2 µg/mL, anti-His HRP
T3 construct: not shown: hexahistidine tag
Text: (§1) Example 2d. […] Briefly, thirty surface amino acid residue substitutions were introduced individually into hexahistidine tagged human IL-4Rα extra cellular domain (ECD) as follows: K2D, E6R, K22D, P26R, T31R, F41A, L42G, L43G, E45R, E52R, G56R, D66R, A71R, Q82G, K87D, E94R, H107A, D108R, P124R, D125R, D143R, R148D, L155R, R160D, S164R, S168R, Q181R, P192R, K195D, or H197G. Each mutant protein having a single amino acid residue substitution as described above was transiently expressed in CHO cells and purified using standard immobilized metal affinity chromatography techniques. […] The plates were then washed 3 times with PBST and the exemplified human IL-4Rα antibody was added to the wells at a final concentration of 1 μg/mL in PBS-casein and incubated for 1 hour at room temperature. The plates were washed 3 times with PBST, the IL-4Rα mutant proteins were serially diluted 5-fold from 1 μg/mL for 3 points. in PBS-casein and added to the plate at 50 μL/well and incubated for 1 hour at room temperature. The plates were washed 3 times with PBST and a 1000-fold dilution of anti-histidine tag antibody HRP conjugate (R&D Systems, Cat. #MAB050H) in PBS-casein was added and incubated for 45 minutes at room temperature. The plates were washed 3 times, TMB substrate (Pierce, Cat. #34028) was added per manufacturer instructions, the reaction was quenched with H₂SO₄, and absorbance was read at 450 nm on an ELISA plate reader.

[2] = biological target: T4, hexahistidine tagged human IL-4Rα ECD K2D (human, UniProt P24394 26-232); assay: as above
T4 construct: not shown: hexahistidine tag
Text: as §1

[3] = biological target: T5, hexahistidine tagged human IL-4Rα ECD E52R (human, UniProt P24394 26-232); assay: as above
T5 construct: not shown: hexahistidine tag
Text: as §1

[4] = biological target: T6, hexahistidine tagged human IL-4Rα ECD K195D (human, UniProt P24394 26-232); assay: as above
T6 construct: not shown: hexahistidine tag
Text: as §1

[5] = biological target: T7, hexahistidine tagged human IL-4Rα ECD L43G (human, UniProt P24394 26-232); assay: as above
T7 construct: not shown: hexahistidine tag
Text: as §1

[6] = biological target: T8, hexahistidine tagged human IL-4Rα ECD E94R (human, UniProt P24394 26-232); assay: as above
T8 construct: not shown: hexahistidine tag
Text: as §1

[7] = biological target: T1, human FcγRIIA_131R (CD32a) …; assay: SPR (Biacore), antibody captured on protein A, FcγR ECD as analyte, steady state, 25 °C
Method: (§2) Unreacted sites were blocked with a 7 minute injection of ethanolamine at 10 μL/minute. Injections of 2×10 μL of glycine, pH 1.5, was used to remove any noncovalently associated protein. Running buffer was 1×HBS-EP+(TEKNOVA, P/N H8022). The FcγR extracellular domains (ECDs)-FcγRI (CD64), FcγRIIA_131R, and FcγRIIA_131H (CD32a), FcγRIIIA_158V, FcγRIIIA_158F (CD16a), and FcγRIIb (CD32b) were produced from stable CHO cell expression and purified using IgG Sepharose and size exclusion chromatography. For FcγRI binding, antibodies were diluted to […] in running buffer, and approximately 150 RU of each antibody was captured in FCs 2 through 4 (RU captured). FC1 was the reference FC, therefore no antibody was captured in FC1. […] Duplicate injections of each concentration were injected over all FCs at 40 μL/minute for 120 seconds followed by a 1200 second dissociation phase. Regeneration was performed by injecting 15 μL of 10 mM glycine, pH 1.5, at 30 μL/minute over all FCs. Reference-subtracted data was collected as FC2 FC1, FC3-FC1, and FC4-FC1 and the measurements were obtained at 25° C. The affinity (KD) was calculated using either steady state equilibrium analysis with the Scrubber 2 Biacore Evaluation Software or a “1:1 (Langmuir) binding” model in BIA Evaluation. For FcγRIIa, FcγRIIb, and FcγRIIIa binding, antibodies were diluted to 5 μg/mL in running buffer, and approximately 500 RU of each antibody was captured in FCs 2 through 4). FC1 was the reference FC. […] Duplicate injections of each concentration were injected over all FCs at 40 μL/minute for 60 seconds followed by a 120 second dissociation phase. Regeneration was performed by injecting 15 μL of 10 mM glycine, pH 1.5, at 30 μL/minute over all FCs. Reference-subtracted data was collected as FC2-FC1, FC3-FC1, and FC4-FC1, and the measurements were obtained at 25° C. The affinity (KD) was calculated using the steady state equilibrium analysis with the Scrubber 2 Biacore Evaluation Software. Each receptor was assayed at least two times.

[8] = biological target: T9, human FcγRIIIA_158V (CD16a) extracellular domain (human, UniProt P08637 17-208); assay: as above
T9 construct: extracellular domain
Method: as §2

[9] = biological target: T2, human FcγRIIA_131H (CD32a) …; assay: as above
Method: as §2

T9 sequence (P08637 17-208 F176V): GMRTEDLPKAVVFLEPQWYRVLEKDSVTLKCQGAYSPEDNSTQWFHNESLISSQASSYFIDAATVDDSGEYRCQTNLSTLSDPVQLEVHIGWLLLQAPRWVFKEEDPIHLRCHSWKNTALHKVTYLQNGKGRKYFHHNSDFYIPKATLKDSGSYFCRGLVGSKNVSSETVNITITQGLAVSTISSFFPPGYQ
T4 sequence (P24394 other isoform, or with tags, fused parts or gaps): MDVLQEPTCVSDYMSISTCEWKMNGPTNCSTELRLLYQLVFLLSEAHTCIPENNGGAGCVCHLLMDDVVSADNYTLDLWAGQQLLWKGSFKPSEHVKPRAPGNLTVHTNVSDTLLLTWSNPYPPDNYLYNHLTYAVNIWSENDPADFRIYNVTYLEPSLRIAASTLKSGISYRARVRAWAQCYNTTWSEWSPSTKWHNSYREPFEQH
T8 sequence (P24394 26-232 E119R): as the sequence (P24394 other isoform, or with tags, fused parts or gaps) above, with D2K, E94R counted along it
T5 sequence (P24394 26-232 E77R): as the sequence (P24394 other isoform, or with tags, fused parts or gaps) above, with D2K, E52R counted along it
T6 sequence (P24394 26-232 K220D): as the sequence (P24394 other isoform, or with tags, fused parts or gaps) above, with D2K, K195D counted along it
T7 sequence (P24394 26-232 L68G): as the sequence (P24394 other isoform, or with tags, fused parts or gaps) above, with D2K, L43G counted along it
T3 sequence (P24394 26-232 P149R): as the sequence (P24394 other isoform, or with tags, fused parts or gaps) above, with D2K, P124R counted along it

Binder	ELISA (OD450) [1] [OD450]	ELISA (OD450) [2] [OD450]	ELISA (OD450) [3] [OD450]	ELISA (OD450) [4] [OD450]	ELISA (OD450) [5] [OD450]	ELISA (OD450) [6] [OD450]	Kd [7] [µM]	Kd [8] [µM]	Kd [9] [µM]
anti-human IL-4Rα antibody Ab1 (antibody, human IgG4 S228P, kappa, human kappa light chain; also called anti-human IL-4Rα Ab1; unconjugated Ab1) heavy: QVQLVESGGGLVQPGGSLRLSCVASGFTFSHSSMNWVRQAPGKGLEWVSYISRATGAVYYADSVKGRFTISRDNAKNSLYLQMNSLRDEDTAVYYCAREPVFDYWGQGTLVTVSSASTKGPCVFPLAPCSRSTSESTAALGCLVKDYFPEPVTVSWNSGALTSGVHTFPAVLQSSGLYSLSSVVTVPSSSLGTKTYTCNVDHKPSNTKVDKRVESKYGPPCPPCPAPEFLGGPSVFLFPPKPKDTLMISRTPEVTCVVVDVSQEDPEVKFNWYVDGVEVHNAKTKPREEQFNSTYRVVSVLTVLHQDWLNGKEYKCKVSNKGLPSSIEKTISKAKGQPREPQVYTLPPSREEMTKNQVSLTCLVKGFYPSDICVEWESNGQPENNYKTTPPVLDSDGSFFLYSRLTVDKSRWQQGNVFSCSVMHEALHNHYTQKSLSLSLG light: DIQMTQSPSAMSASVGDRVTITCRASQDISNYLAWFQQKPGKVPTRLIYAASSLQSGVPSRFSGSGSGTEFTLTISSLQPEDFATYYCLQWSSYPRTFGQGTKVEIKRTVAAPSVFIFPPSDEQLKSGTASVVCLLNNFYPREAKVQWKVDNALQSGNSQESVTEQDSKDSTYSLSSTLTLSKADYEKHKVYACEVTHQGLSSPVTKSFNRGEC	1.7	1.61	1.71	1.65	1.7	1.64			
anti-human IL-4Rα Ab1 GC conjugate of Example 1b (n=4) (antibody, human IgG4 S228P, kappa, glucocorticoid receptor agonist payload-linker (GC-L, Preparation 8) conjugated to the engineered cysteines at the 124 and 378 position of the heavy chain (EU numbering); n is 4 (average DAR 4.17 by RP-HPLC, 3.85 by TOF MS)) heavy: QVQLVESGGGLVQPGGSLRLSCVASGFTFSHSSMNWVRQAPGKGLEWVSYISRATGAVYYADSVKGRFTISRDNAKNSLYLQMNSLRDEDTAVYYCAREPVFDYWGQGTLVTVSSASTKGPCVFPLAPCSRSTSESTAALGCLVKDYFPEPVTVSWNSGALTSGVHTFPAVLQSSGLYSLSSVVTVPSSSLGTKTYTCNVDHKPSNTKVDKRVESKYGPPCPPCPAPEFLGGPSVFLFPPKPKDTLMISRTPEVTCVVVDVSQEDPEVKFNWYVDGVEVHNAKTKPREEQFNSTYRVVSVLTVLHQDWLNGKEYKCKVSNKGLPSSIEKTISKAKGQPREPQVYTLPPSREEMTKNQVSLTCLVKGFYPSDICVEWESNGQPENNYKTTPPVLDSDGSFFLYSRLTVDKSRWQQGNVFSCSVMHEALHNHYTQKSLSLSLG light: DIQMTQSPSAMSASVGDRVTITCRASQDISNYLAWFQQKPGKVPTRLIYAASSLQSGVPSRFSGSGSGTEFTLTISSLQPEDFATYYCLQWSSYPRTFGQGTKVEIKRTVAAPSVFIFPPSDEQLKSGTASVVCLLNNFYPREAKVQWKVDNALQSGNSQESVTEQDSKDSTYSLSSTLTLSKADYEKHKVYACEVTHQGLSSPVTKSFNRGEC							1.82	4.92	3.65
